Data taken from article PMC8025885, “Cryo-EM of kinesin-binding protein: challenges and opportunities from protein-surface interactions” (Acta Crystallographica. Section D, Structural Biology, 2021).

How the values were obtained:
[1] = target: T1, kinesin-binding protein (human, UniProt Q96EK5 1-621); assay: pull-down; complex purified via IMAC using the 6xHis tag on the kinesin construct after incubation with a tenfold excess of KBP; SDS-PAGE of the purified complex; details: both partners purified
T1 construct: The 6xHis tag is thrombin-cleavable; also called KBP; KBP-full; source: E. coli Rosetta2, purified (IMAC, SEC)
T1 sequence (looked up): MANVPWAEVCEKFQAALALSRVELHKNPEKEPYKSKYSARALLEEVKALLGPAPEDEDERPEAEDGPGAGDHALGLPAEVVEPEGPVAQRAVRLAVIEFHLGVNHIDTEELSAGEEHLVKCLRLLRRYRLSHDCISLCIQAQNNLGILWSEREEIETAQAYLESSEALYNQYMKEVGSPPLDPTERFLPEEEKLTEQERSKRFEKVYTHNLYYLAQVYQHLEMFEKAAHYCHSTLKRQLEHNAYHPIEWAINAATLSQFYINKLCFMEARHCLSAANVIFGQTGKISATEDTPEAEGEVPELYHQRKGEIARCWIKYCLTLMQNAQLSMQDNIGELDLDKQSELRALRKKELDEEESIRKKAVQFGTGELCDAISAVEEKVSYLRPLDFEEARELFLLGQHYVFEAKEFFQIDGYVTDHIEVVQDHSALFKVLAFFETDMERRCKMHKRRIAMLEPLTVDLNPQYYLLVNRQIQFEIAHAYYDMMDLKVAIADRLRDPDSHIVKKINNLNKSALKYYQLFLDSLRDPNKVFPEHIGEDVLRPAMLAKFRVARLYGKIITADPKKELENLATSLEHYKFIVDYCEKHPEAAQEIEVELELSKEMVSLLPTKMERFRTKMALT

[2] = target: T1, kinesin-binding protein; assay: cryo-EM structure; rigid KBP-full–KIF15_MD6S subset of particles from GO-coated holey gold grids; 6.9 Å reconstruction; details: both partners purified

B1: human KIF1A motor domain and neck linker construct (domain or fragment, UniProt Q12756 1-362, looked up)
chain: MAGASVKVAVRVRPFNSREMSRDSKCIIQMSGSTTTIVNPKQPKETPKSFSFDYSYWSHTSPEDINYASQKQVYRDIGEEMLQHAFEGYNVCIFAYGQTGAGKSYTMMGKQEKDQQGIIPQLCEDLFSRINDTTNDNMSYSVEVSYMEIYCERVRDLLNPKNKGNLRVREHPLLGPYVEDLSKLAVTSYNDIQDLMDSGNKARTVAATNMNETSSRSHAVFNIIFTQKRHDAETNITTEKVSKISLVDLAGSERADSTGAKGTRLKEGANINKSLTTLGKVISALAEMDSGPNKNKKKKKTDFIPYRDSVLTWLLRENLGGNSRTAMVAALSPADINYDETLSTLRYADRAKQIRCNAVINE
notes: kinesin-3 KIF1A, human, motor domain and neck linker, residues 1-362; The HaloTag is TEV protease-cleavable; the printed size of the motor domain (about 40 kDa); source: E. coli BL21-Gold (DE3), purified (IMAC, SEC); not shown: His6, C-terminal, kept
[1]
  binding result: binds

B2: cysteine-light human KIF15 motor domain and neck linker construct (domain or fragment, UniProt Q9NS87 1-375, looked up)
chain: MAPGSKTELRSVTNGQSNQPSNEGDAIKVFVRIRPPAERSGSADGEQNLSLSVLSSTSLRLHSNPEPKTFTFDHVADVDTTQESVFATVAKSIVESCMSGYNGTIFAYGQTGSGKTFTMMGPSESDNFSHNLRGVIPRSFEYLFSLIDREKEKAGAGKSFLSKCSFIEIYNEQIYDLLDSASAGLYLREHIKKGVFVVGAVEQVVTSAAEAYQVLSGGWRNRRVASTSMNRESSRSHAVFTITIESMEKCNEIVNIRTSLLNLVDLAGSERQKDTHAEGMRLKEAGNINRSLSSLGQVITALVDVGNGKQRHVSYRDSKLTFLLRDSLGGNAKTAIIANVHPGSRSFGETLSTLNFAQRAKLIKNKAVVNEDTQC
notes: kinesin-12 KIF15, human, motor domain and neck linker, residues 1-375, six of eight cysteines mutated to serine and two cysteines introduced; also called KIF15_MD6S; source: pET-21a vector, expressed and purified as described previously (Rosenfeld et al., 2005); not shown: His6, C-terminal, kept
[2]
  binding result: binds
